The source of these data is the DeepSol protein solubility set.

The data set is described as follows: soluble on expression in E. coli; label from the status in PepcDB or PDB records.
“MGYRRFLQLVAHEFFHLWNVKRIRPKALEQFDYEAENYTPSLWFSEGATSYYDLLLPLRAGLYGVDSFLEALGKDLSRYLTTPGRKVQPLAESSFDAWVKLYRRDAYSDNQQMSYYLKGQLVCWLLDLEIRNHQPDLEHHHHHH”: the “soluble on expression in E. coli” value is on record as “soluble”.
“MSLSTADALDDENTFKILVATDIHLGFMEKDAVRGNDTFVTLDEILRLAQENEVDFILLGGDLFHENKPSRKTLHTCLELLRKYCMGDRPVQFEILSDQSVNFGFSKFPWVNYQDGNLNISIPVFSIHGNHDDPTGADALCALDILSCAGFVNHFGRSMSVEKIDISPVLLQKGSTKIALYGLGSIPDERLYRMFVNKKVTMLRPKEDENSWFNLFVIHQNRSKHGSTNFIPEQFLDDFIDLVIWGHEHECKIAPTKNEQQLFYISQPGSSVVTSLSPGEAVKKHVGLLRIKGRKMNMHKIPLHTVRQFFMEDIVLANHPDIFNPDNPKVTQAIQSFCLEKIEEMLENAERERLGNSHQPEKPLVRLRVDYSGGFEPFSVLRFSQKFVDRVANPKDIIHFFRHREQKEKTGEEINFGKLITKPSEGTTLRVEDLVKQYFQTAEKNVQLSLLTERGMGEAVQEFVDKEEKDAIEELVKYQLEKTQRFLKERHIDALEDKIDEEVRRFRETRQKNTNEEDDEVREAMTRARALREGHHHHHH”: the “soluble on expression in E. coli” value is “not soluble”.
As for “SLSTRGINFLHQWIANNVPETTKPDAVSISEITHKLFSDAKALGIKREDIDEEVESLTAHCSIGLCISTLA”, the entry is “not soluble”.
Consider “MGSDKIHHHHHHHTDKAEFLDFSNLTQYRQDVKTLASDAFEGRAPLSKGETLTLDFLVNAFKEMGLAPGFGDSYLQAVPMAKITAKQDMQLTIGALKFTHGKDFTARSQQIKPHIALNNSEVVFVGYGINAPEFGWNDYAGIDVKGKTVIMLVNDPGFATQDNKRFKGNAMTYYGRWTYKYEEAARQGAAAVFIVHETAPAGYGWGVVENSNTGSKFTLVDDNNNLSQIAVMGWLQHKATQQIFATAGLDFDSLKLSTHKAGFKTVDLNLSAKLNLDNSIEMAKSHNVLALLPGATEFDGKRNPQQDELVVMHAHWDHLGSKTHQDGSQEIFNGAVDNASGTAGVLALARAFKAKASVTPFKRSILFSAFTAEETGLIGAQYFAQNPSVPTKNIAAFLNIDGMNVNDGVSYILQYGQGVSELEDYLEDAAKAQQRTVKADPLPQNGLMFRSDHFALAQEGVPGLLFMSLGDTDPNYIDAKYHKEADDYDANWSLGGVSQDLSLIGSILARLANNSDWPKWLEDSDFKTRRSEDNR”, for which the “soluble on expression in E. coli” value is “not soluble”.
As for “MNLYRSRNFYARIRGDRALFTNPATKGGSERSSYSVPTRQALQGIIDGIYHKPTFTNVITEVKVVNQIQTELHGVRALLHDYSADLSYVSYLSDVEYLVKFHFIWNENREDLIQDRLPKKHEAIMERSIRKGGRRDIFLGTRECFGLVDEISQEEYETIPSYYNGVTIDLGIMFHSFAYPTSKDTPLKSYFTKTVMENGAIKFKPQSECEIVNTLSSYAFKSLGQLKSVDDEYVDDEYEEYEAMEKGEG”, the entry is “soluble”; as for “MVKDEVIKQISTPLTSPAFPRGPYKFHNREYFNIVYRTDMDALRKVVPEPLEIDEPLVRFEIMAMHDTSGLGCYTESGQAIPVSFNGVKGDYLHMMYLDNEPAIAVGRELSAYPKKLGYPKLFVDSDTLVGTLDYGKLRVATATMGYKHKALDANEAKDQICRPNYMLKIIPNYDGSPRICELINAKITDVTVHEAWTGPTRLQLFDHAMAPLNDLPVKEIVSSSHILADIILPRAEVIYDYLK”, “soluble”.
For the sequence “MKQEFVAAIEIDGTGRIHVTPGESQFPYIYREAMEVSWNESTRSLHSPVPREWSYAQWLQQIFAAASEQGVKLVLGPNTRWVNVPNELRAELTHAAAA”, the “soluble on expression in E. coli” value was “soluble”.
Take “MGSDKIHHHHHHMTAPHTETDSTQQFLDSMPELKPGEKFQFACHPGVACFNACCSDLTMPLSPYDVLRLRQETGQDSEGFISTFARVETYPDTNFPILYMKMTDGPVRPCPFVSQAGCQVYPNRPAACRTYPLGRGTRVDAQGRLVEQYFIIAEQHCHGFAEEPVWTSEEWLQDQGLARYNYFGDRYTRLMGRAMETGLVLTQKQLTLCLLALYEADRFGAFISGVNLFARLNVSAQEQARILEDEEARLEFGFDWTELVLFGDNERLQVVNP”: the “soluble on expression in E. coli” value was “not soluble”.
“MTETLDHMDQSKIDHQKLAQQLLAQAKAEGVELVGPNGLLNQLTANVLETALEAEMDEHLGYEKHHVTGRNRENSRNGRRTKTVLTEIGPVQIQVPRDTDASFDPQIVKKRQRRLTGVDEIILSLSAKGLTTGEIAAHFDDVYGASVSKETISKITDKVLTEMAEWSVRPLDPVYPVLFIDAIHVKIRDGQVANRPVYVAIGVTTAGEREILGLWAGDGGEGAKFWLAVLTEIRNRGVADVCIAVCDGLKGLPDAITTVWPLTVVQTCLIHLLRNTFRYASRQYWDEMSRDLRPIYTAVNEAAAKEQFTEFADKWGPRYPAIVRLWESAWSEFVPFLDYDPEIRRVICSTNAIESLNARYRRAVRARGHFPSEQAALKCLYLATRSLDPTGKGRARWVTRWKPALNAFAITFEGRITPTVI”: the “soluble on expression in E. coli” value is “not soluble”.
Then “MGSDKIHHHHHHMKPWQGISEFAAVAEQQSFTAAARQLRLSVAQVSRNIAALEHRLQMQLLYRSTRSVSLTEEGKLYLPHCQHLVASLRDADQAIQQRTQQPQGLIRITAPVYYGERFIAPLLNDFLHIYPECRLDFQLTNEQVDLIEGSYDVAIRLGQLGNPRLRARKLGSRRHFVVGSPAYFEEFGRPQDINALDAHRCFTGTVRQWRFQVEGKLETVRPESYLHCNNGLALRDAAMKGLGLAMLPDYYVTDSLANGQLEEVLADYRQPDDGIWALYPENRQVIPKVRVLLDYLSGNLSGNLSGKFNTGEIEN”, with “not soluble”; and “MSLDVPLAQTVVWETHVGDFSNDPAGGFPESHRGKYLAFTDDGTSLEGHPDFPTGLAYLKKLGVTAVQLMPIYDFGSVDETTCDRYNWGYDPINYNVPEGSYSTNPFDGTTRIREVKQMVQALHSAGIKVIMDVVYNHMFSTDNWFERTVPKYFLRRKPNGALANGSGCGCDMATERKMFRRFIVESVTFWAREYHMDGFRFDLMGLIDVDTMNAVRAALNEIPGRGRDILMYGEPWSAGASAPLPADTLLAGKQGLAQLDDRIGHFCDTTRDTIKGHVFYSDRPGYVNGGMHANAVAVREAVDAWRHSDRPEGVAGQVIQYVSAHDDLTLWDKLCASLAASSLGSAVAEGDEENTVDVPKTLHDADFSEQGLDAVGPEMAQALHDVLGANRLSAGIVLTSAGIPFMLSGEEFARTKYGNSDSYDSTKELNWLDWNRAWHMRDLIGFYAKLIALRKSDARWFDGNRKIVDTEGDELVFRVGDYLVAVNPSDRTGVVDVAAAAVEGDSGEMHRYWCCLGVSGRGGGVSTGGGDDDYLIMPAHTFAIWRLQEGHHHHHH”, with “not soluble”.
Then “MGSDKIHHHHHHMKVTIIGAAGQIPHFLIPMLQKQTDAELTLFARNATSRLLDYSKPTVRIVDGDASKSGDVKTAITDADVVFMDFDNPEAVKNVIKVMDQLGKKRLIVAGVLGVYDEVAGAFGKWNNMMIGSGYLPHKQAVTELEKSDLDYTYMRMTWLYDQDGNTNYETQKKGQPLIGAQVTRQAVSQYVIDMIKNPELGIRESNGVVEPNTNFAKPSFY”, with “not soluble”; and “MSLSPPKPSALAHVPGDEGWPIIGRTLAVLADPKGEVEKMARTYGPVYRSRVLGETSITLLGPEANELVLFDNTKLFSSTHGWGPILGRLFPRGLMMLDFDEHRLHRRTLSVAFKAGPMQSYLAELNAGIAHRVAEWRARPGEMLCYPAMKQLTLDLAATSFLGTAIGAETEEVNRAFIDMVAASVAPIRKPWPGTAMARGVKGRQRIVAYFAEQIPIRRAKGGDDLFSQLCRATHDDGALLSNQAIIDHMSFLMMAAHDTLTSSLTSFVAALAAHPEWQQKLREEIAGLGLKPGEPISFEQLDALPLTEMAFKEAMRLRPPVPSLPRRATRAFSFKGYTIPAGTMVAVNPLFTHHMPEIWPNPDQFDPLRFTDEASRGRHRFAWIPYGGGAHMCLGLNFAYMQAKCFAVHLLQHLDLSLPPNYQASWQMWPIPKPKDGLRVNVAPLNEGHHHHHH”, with “soluble”.
